# Data as given in the nanobody polyreactivity screen of Harvey et al. (2022).
# Experiment: yeast display, Sf9 membrane polyspecificity reagent, FACS + sequencing; frameworks hold sequencing errors
# In short: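 Nanobodies came from a synthetic yeast display library in Saccharomyces cerevisiae BJ5465, induced with galactose for 36–48 hours and stained for 1 hour at 4 °C with 10% biotinylated, detergent-solubilized Sf9 membrane reagent. Cells were enriched on streptavidin microbeads and then FACS-sorted, with low and high (top ~1%) gates set on anti-HA fluorescence for expression and streptavidin fluorescence for reagent binding. Each polyreactivity label reflects the gate a clone came from. Genes were amplified by colony PCR, sequenced by MiSeq 2 × 250 and filtered by CDR length.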
row,Sequence,polyreactivity (PSR sort gate)
1,QVQLVESGGGLVQAGGSLRLSCAASGSTFGFNAMGWYRPAPGKERELVAAINESGGDTYYADSVKGRFTISRDNAKNTVYLQMNSLKPEDTAVYYCAADEPSSVYGILVELEYWGQGTQVTVSS,high polyreactivity
2,QVQIVESGGGLVQAGGSLRLSCAASGRTLSYYAMGWYRQAPGKEREFVAAITGSGGSTYYADSVKGRFTISRDNAKNYVYFQMNSLKPEDTAVYYCNAKGLGVFTVEYYYWGQGTQVTVSS,low polyreactivity
3,QVQLVESGGGLVQAGGILRLSCAASGSIFQRYVMGWYRQAPGKAREFVAGITRSGGSTYYADSVKGRFTISRDNAKNTVYLPMNSQKPEDTAVYNCAAALVRGTYKYDYWGQGTQVTFSS,high polyreactivity
4,QVQLVESGGGLVQAGGSLRLSCAASGSIFCSYAMGWYRQAPGKERELVAAITWSGGNTYADSVKGRFTISRDNAKNTDYLQMNSLKPEDTAVYYCAADPAHGTKWYVYPSHDDYWGQGTQGTVSS,low polyreactivity
5,QVQLVESGGGLVQAGGSLRLSCAASGSTFGWYAMGWYRKAPGKERELVAAISTTGGRTYYADSVKGRFTISRDNAKNTVYLQMNSLKPEDTAVYYCNARGRRYVYSYGYDYWGQGTQVTVSS,high polyreactivity
6,QVQLVESGGGLVQAGGSLRLTCAASGRIFTSYAMGWYRQAPGKERELVATITGSTASTYYADSVKGRFTISRDNAKYTVYLQMNSLKPEDTAVYYCAARSVGKRGYDYWGQCTQVTVSS,high polyreactivity
7,QVQLVESGGGLVQAGGSLRLSCAASGYTFSHYPMGWYRQAPGKERELVAGITWSGGSTYYADSVKGRFTISRDNAKNTVYLQMNSLKPEDTSVYYCAGKYYWYYSYSGIPLFDYWGQGTQVTVSS,low polyreactivity
8,QVQLVESGGGLVQAGGSLRLSCAASGFIFYDYAMGWNRQAPGKERELVAAISSGGSTNYADSVKGRFTISRDNAKNTVYLQMNSLKPEDTAVYFCAADDRSYASWKRDYDYWGQGTQVTVSS,low polyreactivity
9,HVQLVESGGGLVQAGGSLRLSCAASGSTLYWNAIGWYRQAPGKEMELVASITSSGGSTYYADSVKGRFTISRDNAKNTVYLQMNSLKPEDTAVYYCATESWWRYSEYYYWGQGTQVTVSS,low polyreactivity
10,QVQLVESGGGLVQAGGSLRLSCAASGRTFWYNAMGWYRQAPGKERELVAAISSSGGTTYYADSVKGRFTISRDNAKNTVYLQMNSLIPEDTAVYYCARQRRSVNVYKNIYKYWGQGTQVNVSS,high polyreactivity
11,QVQLVESGGGLVQAGGSLRLSCAASGNIFYTNAMGWYRQAPGKERELVAAISGSGGRTYYADSVKGRFTISRDNAKNTVYLQMNSLKPEDTAVYYCNAVRREYYDRTYGYWGQGTQVTVSS,low polyreactivity
12,QGHLVESGGGLVQAGGSLRLSCAASGITLTRYAMGWYRQAPWKERELVAAISTGGGSTYYADSVKGRFTFSRDNAKNTVYLQMNSLKPEDTAVYYCAARIRFARGYPITRTYDYWGQGTQVTVSS,high polyreactivity
13,QVQLVESGGGLVQAGGSLRLSCAASGFTFRLYVMGWYRQAPGKERELVAAISSRGGSTYYADSVKGRFTISRDNAKNTVYLQMNSLKPEDTAVYYCAADRPRGRETVDYWGQGTQVTVSS,high polyreactivity
14,QVQLVESGGGLVQAGGSLRLSCAASGFIFGRYAMGWYRQAPGKETELVAAISVSGGSTYYADSVKGRFTISRDNAKNTVYLQMNSLKPEDTAVYYCNVARWVSVSRSYGGNYWGQGTQVTVSS,high polyreactivity
15,QVQLVESGGGLVQAGGSLRLSCAASGLIFLAYTMGWYRLAPGKVRELVAAISYSDGSTYYADSVKARFTISRDNANNTVYVQMNSLKPEDTAVYYCAARPRPPLRSYDYWGQGTQVTVSA,low polyreactivity
16,QVQIVESGGGLVQAGGSLRLSCAASGLIFDANAMGWYRQAPGKERELVAAISNGDSTYYADSVKGRFTISRDNAKNTVYLQMNSLKPEDTAVYYCNARIIYRKWLLRSGTFNYWGQGTQVTVSS,low polyreactivity
17,PVQLVESGGGLVQAGGSLRLSCAASGSTSSYYAMGWYRQAPGKERELVAAIRTSGRTYYADSVKGRFTISRDNAKNTVYLQMNSLQPEDTAVYYCNAGYVSPDYDSWGQGTHVTVSS,high polyreactivity
18,QVQLVESGGGLVQAGGSLRLSCAASGSTFGTYAMGWYRQAPGKERELVADITGSGGSTYYADSVKGRFTISRDNAKNTVYLQMNSLKPEDTAVYYCAAEYGLGDDTAYGYWGQGTQVTVSS,low polyreactivity
19,QVKLVESGGGFLQAGGRLRLSCAASGIIFYYYAMGRYRQAPGKERELVAAISSGGSTYYSDSVKGRFTISRDNAMNTVYLQMNSLKPEDTAVYYCAADPLYTIDIEYSTYGDYDYWGQGTQVTVSS,low polyreactivity
20,QVQLVESGGGLVQAGGSLRLSCAASGRIFGYYAMGWYRQAPGKERELVAAISRSGSSTYYADSVKGRFTISRDNAKNTVYLQMNSLKPEDTAVYYCNSEKYYRAYLLPFNYWGQGTQVTVSS,high polyreactivity
21,QVQLVESGGGLVQAGGSLRLSCGASGRIFYSNAMGWYRQAPGTERELVAAITGSGGRTHYADSVKGRFTISRDNAKNTVYLQMNSLKPEDTAVYYCAKDGYFPEFDYWGQGTQVTVSS,high polyreactivity
